Results: PMC5297747, “Pnserpin: A Novel Serine Protease Inhibitor from Extremophile Pyrobaculum neutrophilum” (International Journal of Molecular Sciences, 2017)

B1: PnCHT, chymotrypsin-like serine protease of Pyrobaculum neutrophilum (enzyme, UniProt B1YBJ2 1-289, looked up)
chain: MDLSGLVEKVARSVVGVAARGVGAVGEGFGSAFAIDRGVYATAYHVVAQAGEVALITPEGEVADAVVAAADPAEDLAILYSDLYAVPLSLGSALRLRVGQGVVAVGFPLALLDKPTATFGIVSAVGRSLRAGDRFFEYLVQTDAAINPGNSGGPLVNLSGEAVGVCSAVIAGAQGLGFAVPIDLVRIMYQMVKRYGRYVRPALGVYVVALNKALKALYGLPTDRGLLVVDVVPSSPAEEMGIARGDILTKVDGREVANVFELRLLIGEALIQGRTPRIEVIRGGRRIEL
notes: chymotrypsin-like serine protease of Pyrobaculum neutrophilum, GenBank ACB40794.1; full length gene synthesized and cloned into pET-28a(+); printed molecular weight 36 kD; source: E. coli BL21 (DE3) CodonPlus, purified (nickel-chelating chromatography)
B2: proteinase k (enzyme, UniProt P06873 106-384, looked up)
chain: AAQTNAPWGLARISSTSPGTSTYYYDESAGQGSCVYVIDTGIEASHPEFEGRAQMVKTYYYSSRDGNGHGTHCAGTVGSRTYGVAKKTQLFGVKVLDDNGSGQYSTIIAGMDFVASDKNNRNCPKGVVASLSLGGGYSSSVNSAAARLQSSGVMVAVAAGNNNADARNYSPASEPSVCTVGASDRYDRRSSFSNYGSVLDIFGPGTSILSTWIGGSTRSISGTSMATPHVAGLAAYLMTLGKTTAASACRYIADTANKGDLSNIPFGTVNLLAYNNYQA
notes: proteinase K; printed molecular weight 28 kD; also called PRK
B3: subtilisin Carlsberg (enzyme, UniProt P00780 106-379, looked up)
chain: AQTVPYGIPLIKADKVQAQGFKGANVKVAVLDTGIQASHPDLNVVGGASFVAGEAYNTDGNGHGTHVAGTVAALDNTTGVLGVAPSVSLYAVKVLNSSGSGSYSGIVSGIEWATTNGMDVINMSLGGASGSTAMKQAVDNAYAKGVVVVAAAGNSGSSGNTNTIGYPAKYDSVIAVGAVDSNSNRASFSSVGAELEVMAPGAGVYSTYPTNTYATLNGTSMASPHVAGAAALILSKHPNLSASQVRNRLSSTATYLGSSFYYGKGLINVEAAAQ
notes: subtilisin Carlsberg; printed molecular weight 27 kD; also called SUC
B4: Pnserpin (natural protein, Pyrobaculum neutrophilum, UniProt B1YBN4 1-393, looked up)
chain: MRLWALLPVTLALVVLLIFIVSLKEASTHSPPTSHTSAPAPLESGSYGDFAVSFYKRIALERLRENLVLSPYSVYKAFAMAYAGAAGETREEIGRVFGFGDDVCALAQAGRGVEEAVAAWVQLGFPLREEYERELSCLGAELRRVDFAERSALVEINRWIEEKTRGYVKDLIPTDYPRSQDIRVVLTSALFFNGSWWPLQFGRIGKREFQGVGPVEFMKLDLGSCVPSLRGRVSADLTVVELRFENTDVAMYVIMPKSLEDYVKGLTYEKLKRDITELPDEIVAVTMPLFTAEFKDSLKKVLIDIGIRSAFDKTRANFTRMSPIRIYIDEVFHGAYIKADEKGVVATAATAVVFVPVCAKVGGMEVVIDRPFLFVLADRRDGTIYFIGHVVKP

Tests used:
Pnserpin [1] = target: B4; test: progress curve of protease inhibition; 80 °C; buffer B; 1 mM Suc-AAPF-pNA as substrate; various concentrations of Pnserpin; absorption at 410 nm; kass = kunc × (1 + [S]/KM); conditions: both partners purified
Pnserpin [2] = target: B4; test: progress curve of protease inhibition; 40 °C; buffer B (100 mM HEPES-NaOH pH 7.5, 200 mM NaCl, 10 mM CaCl2, 0.01% triton X-100, 0.1% glycerol); 1 mM Suc-AAPF-pNA or MeO-SucAAPV-pNA as substrate; various concentrations of Pnserpin; absorption at 410 nm; kass = kunc × (1 + [S]/KM); conditions: both partners purified
subtilisin Carlsberg = target: B3; test: cell-based or functional assay
[3] = target: bovine pancreatic trypsin (bovine); test: cell-based or functional assay
Sequence of bovine pancreatic trypsin (bovine) (P00760 24-246): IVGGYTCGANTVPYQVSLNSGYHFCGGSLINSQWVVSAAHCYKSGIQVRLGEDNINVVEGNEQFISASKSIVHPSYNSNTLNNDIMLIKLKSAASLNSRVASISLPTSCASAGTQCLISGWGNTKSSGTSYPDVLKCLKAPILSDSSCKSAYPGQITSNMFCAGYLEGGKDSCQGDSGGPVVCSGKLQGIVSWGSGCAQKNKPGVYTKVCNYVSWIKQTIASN

[4] = target: B1; test: cell-based or functional assay
bovine plasma thrombin = bovine plasma thrombin (bovine); test: cell-based or functional assay
proteinase k = target: B2; test: cell-based or functional assay
[5] = target: porcine pancreatic elastase (porcine, UniProt P00772 27-266); test: cell-based or functional assay
Sequence of porcine pancreatic elastase (P00772 27-266): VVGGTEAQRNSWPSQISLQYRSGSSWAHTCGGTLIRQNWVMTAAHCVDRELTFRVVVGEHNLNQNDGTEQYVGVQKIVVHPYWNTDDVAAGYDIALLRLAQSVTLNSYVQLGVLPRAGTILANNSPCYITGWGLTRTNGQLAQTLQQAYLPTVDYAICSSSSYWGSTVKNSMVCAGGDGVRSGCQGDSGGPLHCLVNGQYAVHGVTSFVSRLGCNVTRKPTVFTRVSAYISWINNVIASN

B1
kon (Pnserpin [1]): 107000 M⁻¹ s⁻¹ | kon (Pnserpin [2]): 39000 M⁻¹ s⁻¹

B2
kon (Pnserpin [2]): 198000 M⁻¹ s⁻¹

B3
kon (Pnserpin [2]): 130000 M⁻¹ s⁻¹

B4
stoichiometry of inhibition (SI), incubation at 20 °C; residual protease activity (subtilisin Carlsberg): 10 | stoichiometry of inhibition (SI), incubation at 30 °C; residual protease activity (subtilisin Carlsberg): 8.76 | stoichiometry of inhibition (SI), incubation at 40 °C; residual protease activity (subtilisin Carlsberg): 6.95 | stoichiometry of inhibition (SI), incubation at 50 °C; residual protease activity (subtilisin Carlsberg): 5.34 | stoichiometry of inhibition (SI), incubation at 60 °C; residual protease activity (subtilisin Carlsberg): 3.97 | stoichiometry of inhibition (SI), incubation at 70 °C; residual protease activity (subtilisin Carlsberg): 2.67 | stoichiometry of inhibition (SI), incubation at 20 °C; residual protease activity [3]: 10.2 | stoichiometry of inhibition (SI), incubation at 30 °C; residual protease activity [3]: 6.14 | stoichiometry of inhibition (SI), incubation at 40 °C; residual protease activity [3]: 5.16 | stoichiometry of inhibition (SI), incubation at 50 °C; residual protease activity [3]: 2.53 | stoichiometry of inhibition (SI), incubation at 20 °C; residual protease activity [4]: 32.7 | stoichiometry of inhibition (SI), incubation at 40 °C; residual protease activity [4]: 23.9 | stoichiometry of inhibition (SI), incubation at 60 °C; residual protease activity [4]: 19.8 | stoichiometry of inhibition (SI), incubation at 80 °C; residual protease activity [4]: 11.3 | stoichiometry of inhibition (SI), incubation at 100 °C; residual protease activity [4]: 6.82 | stoichiometry of inhibition (SI), incubation at 20 °C; residual protease activity (bovine plasma thrombin): 21.1 | stoichiometry of inhibition (SI), incubation at 30 °C; residual protease activity (bovine plasma thrombin): 15.2 | stoichiometry of inhibition (SI), incubation at 40 °C; residual protease activity (bovine plasma thrombin): 12.2 | stoichiometry of inhibition (SI), incubation at 50 °C; residual protease activity (bovine plasma thrombin): 9.31 | stoichiometry of inhibition (SI), incubation at 20 °C; residual protease activity (proteinase k): 9.99 | stoichiometry of inhibition (SI), incubation at 30 °C; residual protease activity (proteinase k): 7.39 | stoichiometry of inhibition (SI), incubation at 40 °C; residual protease activity (proteinase k): 5.99 | stoichiometry of inhibition (SI), incubation at 50 °C; residual protease activity (proteinase k): 4.69 | stoichiometry of inhibition (SI), incubation at 60 °C; residual protease activity (proteinase k): 2.75 | stoichiometry of inhibition (SI), incubation at 70 °C; residual protease activity (proteinase k): 2.28 | stoichiometry of inhibition (SI), incubation at 20 °C; residual protease activity [5]: 10.1 | stoichiometry of inhibition (SI), incubation at 30 °C; residual protease activity [5]: 9.33 | stoichiometry of inhibition (SI), incubation at 40 °C; residual protease activity [5]: 7.9 | stoichiometry of inhibition (SI), incubation at 50 °C; residual protease activity [5]: 7.41 | stoichiometry of inhibition (SI), incubation at 60 °C; residual protease activity [5]: 4.84 | stoichiometry of inhibition (SI), incubation at 70 °C; residual protease activity [5]: 2.74
